These results are taken from the nanobody polyreactivity screen of Harvey et al. (2022).

This data set is described as follows: yeast display, Sf9 membrane polyspecificity reagent, FACS + sequencing; frameworks hold sequencing errors. Put shortly: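 After 36–48 hours of galactose induction, yeast (Saccharomyces cerevisiae BJ5465) displaying a synthetic nanobody library were stained at 4 °C for 1 hour with 10% biotinylated, detergent-solubilized Sf9 membrane reagent. Streptavidin microbeads enriched the stained cells before FACS sorting into low and high (top ~1%) gates on anti-HA and streptavidin fluorescence. Each clone's polyreactivity label reflects its gate of origin.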
As for “QVQLVESGGGLVQAGGSLRLSCAASGRIFGVYAMGWYRQAPGKERELVAAITRGASTYYADSVKGRFTISRDNAKNTVYLQMNSLKPEDCAVYYCAVSQYRGIYRMDYWGQGTQVTVSS”, the “polyreactivity (PSR sort gate)” value is “high polyreactivity”.

In the case of “QVQLVESGGGLVQAGGSLRLSCAASGRIFGVYAMGWYRQAPGKERELVAAITSSGGRTYYADSVKGRFTISRDNAKNTVYLQMNSLKPEDTAVYYCAALGWSRRGKFNYWGQGTQVTVSS”, the “polyreactivity (PSR sort gate)” value was “high polyreactivity”.

Turning to “QVQLVESGGGLVQAGGSLRLSCAASGRIFGVYAMGWYRQAPGKERELVAAIYSGSTTYYADSVKGRFTISRDNAKNTVYVQMNSLKPEDTAVYYCAAVSRDDNYQDYYSWGQGTQVTGSS”, the “polyreactivity (PSR sort gate)” value is reported as “low polyreactivity”.

Consider “QVQLVESGGGLVQAGGSLRLSCAASGRIFGVYAMGWYRQAPGKERELVADISWSGSGTYADSVKGRFTISRDNAKNTVYLQMMSLKPEDTAVYYCNVDPAQIHAGYVGYDYWGQGTQVTVSS”, for which the “polyreactivity (PSR sort gate)” value was “low polyreactivity”.

Regarding “QVQLVESGGGLVQAGGSLRLSCAASGRIFGVYAMGWYRQAPGKERELVASITGSGGRTYYADSVKGRFTISRDNAKNTVYLQMNSLKPEDTAVYYCAAKWGTRLAQQKSYGYWGQGTQVTVSS”, the “polyreactivity (PSR sort gate)” value was “high polyreactivity”.

For the sequence “QVQLVESGGGLVQAGGSLRLSCAASGRIFGVYAMGWYRQAPGKERELVATITSGGSTSYADSVKGRFTISRDNAKNTVYLQMNSPKPEDTAVYYCNAPYSFFWQQMNYWGQGTQVTVSS”, the “polyreactivity (PSR sort gate)” value is listed as “low polyreactivity”.

In the case of “QVQLVESGGGLVQAGGSLRLSCAASGRIFGVYVMGWYRQAPGKERELVAAISWSGSHTYYADSVKGRFTISRDNAKNTVYLQMNSLKPEDTAVYYCAAGASLWRLGLKMGYWGQGTQVTVSS”, the “polyreactivity (PSR sort gate)” value was “low polyreactivity”.

In the case of “QVQLVESGGGLVQAGGSLRLSCAASGRIFGVYVMGWYRQAPGKERELVAAISWSGSHTYYADSVKGRFTISRDNAKNTVYLQMNSLKPEDTAVYYCNADSSPEYTGPGLDWYDYWGQGTQVTVSS”, the “polyreactivity (PSR sort gate)” value is reported as “low polyreactivity”.

On to “QVQLVESGGGLVQAGGSLRLSCAASGRIFGWYAMGWYRQAPGKERELVAAIDGGDDSTYYADSVKGRFTISRDNAKNTVYLQMNSLKPEDTAVYYCAVVGYNWGQGTQVTVSS”, for which the “polyreactivity (PSR sort gate)” value was “low polyreactivity”.

Regarding “QVQLVESGGGLVQAGGSLRLSCAASGRIFGWYAMGWYRQSPGKERELVAAITGSGSRTYYADSVKGRFTISRDNAKNTVYLQMNSLKPEDTAVYYCAVPTRRRRIYDYWGQGTQVTVSS”, the “polyreactivity (PSR sort gate)” value is “high polyreactivity”.

As to “QVQLVESGGGLVQAGGSLRLSCAASGRIFGYHARGWSRQAPGKERELVAAIDYTGGSTYYADSVKGRFTISRDNAKNTVYLQMNSLKPEETAVNYCAKDRTTPWEEDAYWGQGTQVTVSS”, the “polyreactivity (PSR sort gate)” value was “low polyreactivity”.

For “QVQLVESGGGLVQAGGSLRLSCAASGRIFGYNALGWYRQAPGKERELVAAINSDGSKNYADSVKGRFTISRDNAKNTVYFQMNSLNPEDTALYYCNKELYPVGDYEYWGEGTQVTVSS”, the “polyreactivity (PSR sort gate)” value is “low polyreactivity”.

As to “QVQLVESGGGLVQAGGSLRLSCAASGRIFGYNAMGWSRQAPGKERELFAAITTSGGSTYYADSVKGRFTISRDNAKNTVYLQMNSLKPEDTAVYYCARDSLQVFYPYASDDYWGQGTQVTVSS”, the “polyreactivity (PSR sort gate)” value is listed as “low polyreactivity”.

With “QVQLVESGGGLVQAGGSLRLSCAASGRIFGYNAMGWSRQAPGKERELGAAISWSGGSTFYADSVKGRFTISRDNAKNTVYLQMNSLKPEDTAVYYCAADSQDGYYYWGQGTQVTVSS”, the “polyreactivity (PSR sort gate)” value is recorded as “low polyreactivity”.

As for “QVQLVESGGGLVQAGGSLRLSCAASGRIFGYNAMGWYRQAPGKERELVAVITYSGGSTYYADSVKGRFTISRDNAKNTVYLQMNSLKPEDTAVYYCNARPIDRYSGSGKQWPDYYYWGQGTQVTVSS”, the “polyreactivity (PSR sort gate)” value was “low polyreactivity”.

In the case of “QVQLVESGGGLVQAGGSLRLSCAASGRIFGYYAMGCYRQAPGKERELVAAIRWGGGRTYADSVKGRFTISRDNAKNTVYLQMNSLKPEDTAVDYCAARFTRTRPLWRARYGYWGQGTQVTVSS”, the “polyreactivity (PSR sort gate)” value was “high polyreactivity”.
